Assay results as given in the supplement of paper PMC9112550, “Optimization of the antimicrobial peptide Bac7 by deep mutational scanning” (BMC Biology, 2022).

test system: Escherichia coli TOP10; experiment: shrunken log2 fold change of peptide-encoding DNA abundance (4.5 h post-induction vs induction); higher = less antimicrobial activity (less host growth inhibition); conditions: time post-induction: 4.5 h; library: site-saturation at positions 5, 18, 19, 20
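Note: peptides expressed intracellularly from a pBAD plasmid library in pooled LB shake-flask culture, induced with 0.3% L-arabinose, DNA abundance read by NGS, three biological replicates, DESeq2 with apeglm shrinkage.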

Compared with RRIRCRPPRLPRPRPRPHLTPRP, RRIRQRPPRLPRPRPRPFPCPRP is higher in “shrunken log2 fold change” value: -0.229 for the first, 0.0349 for the second.

Compared with RRIRRRPPRLPRPRPRPIDPPRP, RRIRKRPPRLPRPRPRPSHNPRP is lower in “shrunken log2 fold change” value: -0.0222 for the first, -0.351 for the second.

First: RRIRMRPPRLPRPRPRPTKLPRP
Second: RRIRYRPPRLPRPRPRPKLAPRP
The “shrunken log2 fold change” value of the first is higher: 0.287 for the first, -0.0901 for the second.

Compared with RRIRRRPPRLPRPRPRPYFHPRP, RRIRYRPPRLPRPRPRPTNNPRP is lower in “shrunken log2 fold change” value: -0.387 for the first, -1.14 for the second.

First: RRIRRRPPRLPRPRPRPPVHPRP
Second: RRIRERPPRLPRPRPRPSGAPRP
The “shrunken log2 fold change” value of the first is higher: 0.197 for the first, -0.12 for the second.

Going from RRIRVRPPRLPRPRPRPMCMPRP to RRIRWRPPRLPRPRPRPKCEPRP, the “shrunken log2 fold change” value rises from 0.0119 to 0.359.

RRIRNRPPRLPRPRPRPNMCPRP and RRIRERPPRLPRPRPRPQKEPRP are within 0.2 log units of each other in “shrunken log2 fold change” value: -0.0592 for the first, -0.0239 for the second.

RRIRQRPPRLPRPRPRPSAGPRP and RRIRIRPPRLPRPRPRPIPRPRP are within 0.2 log units of each other in “shrunken log2 fold change” value: 0.0717 for the first, 0.0123 for the second.

Going from RRIRIRPPRLPRPRPRPLLRPRP to RRIRARPPRLPRPRPRPIPHPRP, the “shrunken log2 fold change” value rises from -0.239 to 0.0126.

First: RRIRGRPPRLPRPRPRPTMTPRP
Second: RRIRFRPPRLPRPRPRPMIVPRP
The “shrunken log2 fold change” value of the first is higher: 2.08 for the first, -0.105 for the second.

Compared with RRIRDRPPRLPRPRPRPRFCPRP, RRIRPRPPRLPRPRPRPLSSPRP is lower in “shrunken log2 fold change” value: 0.341 for the first, 0.00895 for the second.

Compared with RRIRQRPPRLPRPRPRPACDPRP, RRIRFRPPRLPRPRPRPNCWPRP is lower in “shrunken log2 fold change” value: 0.0239 for the first, -0.358 for the second.

First: RRIRDRPPRLPRPRPRPRYHPRP
Second: RRIRSRPPRLPRPRPRPRDPPRP
The “shrunken log2 fold change” value of the first is lower: -0.0202 for the first, 0.623 for the second.

First: RRIRGRPPRLPRPRPRPNMHPRP
Second: RRIRVRPPRLPRPRPRPLTYPRP
The “shrunken log2 fold change” value of the first is higher: 0.563 for the first, -0.356 for the second.

RRIRLRPPRLPRPRPRPPHRPRP and RRIRSRPPRLPRPRPRPAPCPRP are within 0.2 log units of each other in “shrunken log2 fold change” value: 0.182 for the first, 0.308 for the second.

Going from RRIRNRPPRLPRPRPRPTITPRP to RRIRARPPRLPRPRPRPMTWPRP, the “shrunken log2 fold change” value rises from -0.455 to 0.307.

RRIRGRPPRLPRPRPRPWFHPRP and RRIRRRPPRLPRPRPRPQKFPRP are within 0.2 log units of each other in “shrunken log2 fold change” value: -0.121 for the first, -0.0996 for the second.

RRIRHRPPRLPRPRPRPIVIPRP and RRIRVRPPRLPRPRPRPIFNPRP are within 0.2 log units of each other in “shrunken log2 fold change” value: -0.158 for the first, -0.274 for the second.

RRIRTRPPRLPRPRPRPNKQPRP and RRIRWRPPRLPRPRPRPKHMPRP are within 0.2 log units of each other in “shrunken log2 fold change” value: -0.207 for the first, -0.063 for the second.

RRIRVRPPRLPRPRPRPHMCPRP and RRIRLRPPRLPRPRPRPFLAPRP are within 0.2 log units of each other in “shrunken log2 fold change” value: -0.301 for the first, -0.141 for the second.

RRIRFRPPRLPRPRPRPCLVPRP and RRIRIRPPRLPRPRPRPERFPRP are within 0.2 log units of each other in “shrunken log2 fold change” value: -0.208 for the first, -0.0158 for the second.

First: RRIRYRPPRLPRPRPRPNAHPRP
Second: RRIRARPPRLPRPRPRPAHCPRP
The “shrunken log2 fold change” value of the first is lower: -0.395 for the first, 0.433 for the second.

Compared with RRIRMRPPRLPRPRPRPQVRPRP, RRIRYRPPRLPRPRPRPFITPRP is lower in “shrunken log2 fold change” value: -0.0122 for the first, -0.709 for the second.

Compared with RRIRRRPPRLPRPRPRPGPHPRP, RRIRHRPPRLPRPRPRPDDIPRP is lower in “shrunken log2 fold change” value: 0.437 for the first, -0.0131 for the second.

First: RRIRNRPPRLPRPRPRPVTHPRP
Second: RRIRKRPPRLPRPRPRPYKMPRP
The “shrunken log2 fold change” value of the first is higher: 0.0124 for the first, -0.47 for the second.

First: RRIRCRPPRLPRPRPRPRITPRP
Second: RRIRERPPRLPRPRPRPEFDPRP
The “shrunken log2 fold change” value of the first is lower: -0.212 for the first, 0.039 for the second.

RRIRHRPPRLPRPRPRPCVLPRP and RRIRERPPRLPRPRPRPTFKPRP are within 0.2 log units of each other in “shrunken log2 fold change” value: -0.14 for the first, -0.313 for the second.

Compared with RRIRFRPPRLPRPRPRPIFDPRP, RRIRQRPPRLPRPRPRPMVYPRP is higher in “shrunken log2 fold change” value: -0.268 for the first, 0.017 for the second.

RRIRIRPPRLPRPRPRPLWKPRP and RRIRDRPPRLPRPRPRPWAAPRP are within 0.2 log units of each other in “shrunken log2 fold change” value: 0.145 for the first, 0.00948 for the second.

First: RRIRTRPPRLPRPRPRPQTFPRP
Second: RRIRWRPPRLPRPRPRPEVRPRP
The “shrunken log2 fold change” value of the first is lower: -0.567 for the first, 0.495 for the second.

RRIRSRPPRLPRPRPRPGKMPRP and RRIRVRPPRLPRPRPRPNFIPRP are within 0.2 log units of each other in “shrunken log2 fold change” value: -0.0839 for the first, -0.168 for the second.

RRIRDRPPRLPRPRPRPEQNPRP and RRIRKRPPRLPRPRPRPLQHPRP are within 0.2 log units of each other in “shrunken log2 fold change” value: 0.517 for the first, 0.657 for the second.

Going from RRIRHRPPRLPRPRPRPDGIPRP to RRIRARPPRLPRPRPRPYMTPRP, the “shrunken log2 fold change” value falls from -0.0529 to -0.256.

Compared with RRIRARPPRLPRPRPRPGRGPRP, RRIRTRPPRLPRPRPRPKIPPRP is lower in “shrunken log2 fold change” value: 0.486 for the first, -0.21 for the second.

First: RRIRIRPPRLPRPRPRPPNPPRP
Second: RRIRPRPPRLPRPRPRPWEDPRP
The “shrunken log2 fold change” value of the first is higher: 0.765 for the first, 0.00408 for the second.

RRIRYRPPRLPRPRPRPIQVPRP and RRIRLRPPRLPRPRPRPRCFPRP are within 0.2 log units of each other in “shrunken log2 fold change” value: -0.0153 for the first, -0.0548 for the second.

RRIRDRPPRLPRPRPRPVNWPRP and RRIRVRPPRLPRPRPRPTLGPRP are within 0.2 log units of each other in “shrunken log2 fold change” value: 0.188 for the first, 0.213 for the second.

With RRIRARPPRLPRPRPRPLQRPRP the “shrunken log2 fold change” value was 0.58.
